The text below walks through data of patent US12031160B2, “Method for the production of glufosinate-ammonium” (ZHEJIANG UNIVERSITY OF TECHNOLOGY, priority 2018, dated 2024).

Substitutions are numbered along the chain they refer to. Names and notes keep the numbering of the source.

Substrate in series [1]: NC(=O)C1=CN([C@@H]2O[C@H](COP(=O)(O)OP(=O)(O)OC[C@H]3O[C@@H](n4cnc5c(N)ncnc54)[C@H](OP(=O)(O)O)[C@@H]3O)[C@@H](O)[C@H]2O)C=CC1
The series can be described thus: purified protein, by the assay type.

Substrate in series [2]: CP(=O)(O)CCC(=O)C(=O)O
The series is described as follows: purified protein, by the assay type. As to conditions: other: PPO 2-10 mM, NADPH 1-5 mM, pH 7.4, 35° C., double-reciprocal plot.

Substrate in series [3]: NC(=O)C1=CN([C@@H]2O[C@H](COP(=O)(O)OP(=O)(O)OC[C@H]3O[C@@H](n4cnc5c(N)ncnc54)[C@H](OP(=O)(O)O)[C@@H]3O)[C@@H](O)[C@H]2O)C=CC1
The series is described as follows: Kinetic parameters of purified mutant PPTGDH-L107R-F188P. The series is classed as biochemical, Pseudomonas moorei. As to conditions: other: PPO 2-10 mM, NADPH 1-5 mM, pH 7.4, 35° C., double-reciprocal plot. As for the experimental part: (§1) 1. […] The mutant proteins were purified by Ni-NTA column(1.6×10 cm, Bio-Rad, the USA), and the specific operations were carried out as follows: (1)equilibrate a Ni-NTA column with 5 column volumes of a binding buffer(pH 8.0, 50 mM sodium phosphate buffer containing 0.3 M NaCl) until the baseline is steady; (2)load the sample with a flow rate of 1 mL/min with the amount of the loading sample of 25-40 mg/mL, thereby attaching the target protein to the Ni-NTA column; (3)wash the column with 6 column volumes of buffer A (pH 8.0, 50 mM sodium phosphate buffer containing 0.3 M NaCl and 30 mM imidazole) at a flow rate of 1 mL/min until the baseline is steady; (4)wash the column with buffer B (pH 8.0, 50 mM sodium phosphate buffer containing 0.3 M NaCl and 500 mM imidazole) at a flow rate of 1 mL/min, collect the target protein and dialyze overnight in a pH 7.5, 20 mM phosphate buffer, thereby obtaining the pure glufosinate-ammonium dehydrogenase; and (5)wash the Ni-NTA column with 5 column volumes of a binding buffer(pH 8.0, 50 mM sodium phosphate buffer containing 0.3 M NaCl) until the baseline is steady, and store the Ni-NTA column in 5 column volumes of ultrapure water containing 20% ethanol.
(§2) According to sequential mechanism in glufosinate-ammonium dehydrogenase's catalytic reaction, vmax, Km^A, Km^B can be calculated by a double-reciprocal plot, the results were shown in Table 4.

Substrate in series [4]: CP(=O)(O)CCC(=O)C(=O)O
The series is described as above. The series is classed as biochemical, Pseudomonas moorei. As to conditions: other: PPO 2-10 mM, NADPH 1-5 mM, pH 7.4, 35° C., double-reciprocal plot. On the procedure: as §1, §2

Substrate in series [5]: NC(=O)C1=CN([C@@H]2O[C@H](COP(=O)(O)OP(=O)(O)OC[C@H]3O[C@@H](n4cnc5c(N)ncnc54)[C@H](OP(=O)(O)O)[C@@H]3O)[C@@H](O)[C@H]2O)C=CC1
The series is described as follows: Kinetic parameters of purified mutant PPTGDH-L107R-F188P-G239K. It counts as biochemical, Pseudomonas moorei. As to conditions: other: PPO 2-10 mM, NADPH 1-5 mM, pH 7.4, 35° C., double-reciprocal plot. On the procedure: as §1, §2

Substrate in series [6]: CP(=O)(O)CCC(=O)C(=O)O
The series is described as above. As to conditions: other: PPO 2-10 mM, NADPH 1-5 mM, pH 7.4, 35° C., double-reciprocal plot. It counts as biochemical, Pseudomonas moorei. As for the experimental part:
as §1, §2

Substrate in series [7]: NC(=O)C1=CN([C@@H]2O[C@H](COP(=O)(O)OP(=O)(O)OC[C@H]3O[C@@H](n4cnc5c(N)ncnc54)[C@H](OP(=O)(O)O)[C@@H]3O)[C@@H](O)[C@H]2O)C=CC1
The series can be described thus: Kinetic parameters of purified mutant PPTGDH-F188P. Conditions: other: PPO 2-10 mM, NADPH 1-5 mM, pH 7.4, 35° C., double-reciprocal plot. The series is classed as biochemical, Pseudomonas moorei. On the procedure: as §1, §2

Substrate in series [8]: CP(=O)(O)CCC(=O)C(=O)O
The series is described as follows: Kinetic parameters of purified mutant PPTGDH-F188P. The series is classed as biochemical, Pseudomonas moorei. Conditions: other: PPO 2-10 mM, NADPH 1-5 mM, pH 7.4, 35° C., double-reciprocal plot. As for the experimental part: as §1, §2

Substrate in series [9]: NC(=O)C1=CN([C@@H]2O[C@H](COP(=O)(O)OP(=O)(O)OC[C@H]3O[C@@H](n4cnc5c(N)ncnc54)[C@H](OP(=O)(O)O)[C@@H]3O)[C@@H](O)[C@H]2O)C=CC1
The series is described as follows: Kinetic parameters of purified mutant PPTGDH-L107R. Conditions: other: PPO 2-10 mM, NADPH 1-5 mM, pH 7.4, 35° C., double-reciprocal plot. It counts as biochemical, Pseudomonas moorei. On the procedure: as §1, §2

Substrate in series [10]: CP(=O)(O)CCC(=O)C(=O)O
The series is described as follows: Kinetic parameters of purified mutant PPTGDH-L107R. As to conditions: other: PPO 2-10 mM, NADPH 1-5 mM, pH 7.4, 35° C., double-reciprocal plot. The series is classed as biochemical, Pseudomonas moorei. As for the experimental part: as §1, §2

Substrate in series [11]: NC(=O)C1=CN([C@@H]2O[C@H](COP(=O)(O)OP(=O)(O)OC[C@H]3O[C@@H](n4cnc5c(N)ncnc54)[C@H](OP(=O)(O)O)[C@@H]3O)[C@@H](O)[C@H]2O)C=CC1
The series is described as follows: Kinetic parameters of purified mutant PPTGDH-G239K. As to conditions: other: PPO 2-10 mM, NADPH 1-5 mM, pH 7.4, 35° C., double-reciprocal plot. It counts as biochemical, Pseudomonas moorei. On the procedure: as §1, §2

Substrate in series [12]: CP(=O)(O)CCC(=O)C(=O)O
The series can be described thus: Kinetic parameters of purified mutant PPTGDH-G239K. It counts as biochemical, Pseudomonas moorei. As to conditions: other: PPO 2-10 mM, NADPH 1-5 mM, pH 7.4, 35° C., double-reciprocal plot. On the procedure:
as §1, §2

Substrate in series [13]: NC(=O)C1=CN([C@@H]2O[C@H](COP(=O)(O)OP(=O)(O)OC[C@H]3O[C@@H](n4cnc5c(N)ncnc54)[C@H](OP(=O)(O)O)[C@@H]3O)[C@@H](O)[C@H]2O)C=CC1
The series can be described thus: Kinetic parameters of purified mutant PPTGDH-F357G. Conditions: other: PPO 2-10 mM, NADPH 1-5 mM, pH 7.4, 35° C., double-reciprocal plot. It counts as biochemical, Pseudomonas moorei. As for the experimental part: as §1, §2

Substrate in series [14]: CP(=O)(O)CCC(=O)C(=O)O
The series is described as follows: Kinetic parameters of purified mutant PPTGDH-F357G. The series is classed as biochemical, Pseudomonas moorei. As to conditions: other: PPO 2-10 mM, NADPH 1-5 mM, pH 7.4, 35° C., double-reciprocal plot. On the procedure:
as §1, §2

The mark [15] stands for this setting: other: PPO 2-10 mM, NADPH 1-5 mM, pH 7.4, 35° C., double-reciprocal plot.

One may read the Km as the substrate concentration at which the rate is half of its maximum. The kcat/Km is the second-order rate constant that governs catalysis at low substrate concentration. By kcat is commonly meant the number of substrate molecules converted per active site and unit of time at saturation.

B1: Pseudomonas moorei glufosinate-ammonium dehydrogenase E3 (PPTGDH, PPTGDHE3, WP_090325311.1), wild type, SEQ ID NO: 6 (Pseudomonas moorei) (protein)
chain: MIESVESFLARLKKRDPDQPEFHQAVEEVLRSLWPFLEANPRYLTSGILERICEPERAIVFRVSWVDDQGKVQVNRGFRIQMNSAIGPYKGGLRFHPSVNLGVLKFLAFEQTFKNSLTSLPMGGGKGGSDFDPKGKSDAEVMRFCQAFMSELYRHIGADVDVPAGDIGVGAREIGFLFGQYKRLSNQFTSVLTGKGPSYGGSLIRPEATGFGCVYFAEEMLKRRGETVEGKRVAISGSGNVAQYAARKVMDLGGKVISLSDSEGTLYCESGLTEAQWQAVLELKNVQRGRISELAGRFGLEFLAGQRPWGLSCDIALPCATQNELDAEAARALLRNGCTCVAEGANMPTTLEAVDLFIEAGILFAPGKASNAGGVAVSGLEMSQNAMRLLWTGGEVDSKLHAIMQSIHHACVHYGEENGQVNYVKGANIAGFVKVADAMLAQGVV
As for B1, in [1] (setting [15]), the Michaelis-Menten constant (Km) came out at 120 µM. Also, the kcat/Km in series [1] (other: pH 7.4, 35° C.) came to 395910 M⁻¹ s⁻¹. Further, in series [2], the Km stood at 3120 µM, the catalytic constant (kcat) came out at 47.51 ± 2.05 s⁻¹ and the kcat/Km was 15220 M⁻¹ s⁻¹.

B2: Pseudomonas moorei glufosinate-ammonium dehydrogenase E3 (SEQ ID NO: 6) variant PPTGDH-L107R-F188P (Pseudomonas moorei; F188P/L107R) (protein)
chain: B1 chain with L107R, F188P
Turning to B2, in series [3], the Km was 112 µM and the kcat/Km came to 599110 M⁻¹ s⁻¹. Besides, in series [4], the Michaelis constant (Km) stood at 3220 µM, the kcat stood at 67.10 ± 2.81 s⁻¹ and the kcat/Km was 20840 M⁻¹ s⁻¹.

B3: Pseudomonas moorei glufosinate-ammonium dehydrogenase E3 (SEQ ID NO: 6) variant PPTGDH-L107R-F188P-G239K (Pseudomonas moorei; F188P/G239K/L107R) (protein)
chain: B1 chain with L107R, F188P, G239K
Turning to B3, in series [5], the Michaelis-Menten constant (Km) was 45 µM and the kcat/Km came out at 1.35e+07 M⁻¹ s⁻¹. Moreover, in series [6], the Km came to 2090 µM, the turnover number (kcat) amounted to 607.5 ± 4.02 s⁻¹ and the specificity constant (kcat/Km) is 290670 M⁻¹ s⁻¹.

B4: Pseudomonas moorei glufosinate-ammonium dehydrogenase E3 (SEQ ID NO: 6) variant PPTGDH-F188P (Pseudomonas moorei; F188P) (protein)
chain: B1 chain with F188P
Consider B4, for which, in series [7], the Km is 140 µM and the kcat/Km is 239290 M⁻¹ s⁻¹. For the same protein, in series [8], the Km amounted to 4160 µM, the kcat is 33.50 ± 1.51 s⁻¹ and the kcat/Km was found to be 8050 M⁻¹ s⁻¹.

B5: Pseudomonas moorei glufosinate-ammonium dehydrogenase E3 (SEQ ID NO: 6) variant PPTGDH-L107R (Pseudomonas moorei; L107R) (protein)
chain: B1 chain with L107R
B5: in [9], the Km worked out at 102 µM and the kcat/Km was 411960 M⁻¹ s⁻¹. Also, in series [10], the Km was found to be 2430 µM, the kcat turned out to be 42.02 ± 2.47 s⁻¹ and the kcat/Km is 17290 M⁻¹ s⁻¹.

B6: Pseudomonas moorei glufosinate-ammonium dehydrogenase E3 (SEQ ID NO: 6) variant PPTGDH-G239K (Pseudomonas moorei; G239K) (protein)
chain: B1 chain with G239K
For the protein B6, in [11], the Km was determined as 68 µM and the kcat/Km was determined as 499700 M⁻¹ s⁻¹. For the same protein, in series [12], the Km is 2530 µM, the kcat is 33.98 ± 1.55 s⁻¹ and the kcat/Km was 13430 M⁻¹ s⁻¹.

B7: Pseudomonas moorei glufosinate-ammonium dehydrogenase E3 (SEQ ID NO: 6) variant PPTGDH-L107R-F188P-G239K-F357G, SEQ ID NO: 9 (Pseudomonas moorei; … (protein)
chain: B1 chain with L107R, F188P, G239K, F357G
On to B7, for which, in series [1] (setting [15]), the Km is 52 µM and the kcat/Km was 1.3703e+07 M⁻¹ s⁻¹. In [2], the Km is 2110 µM, the kcat was found to be 712.6 ± 3.21 s⁻¹ and the kcat/Km turned out to be 337730 M⁻¹ s⁻¹.

B8: Pseudomonas moorei glufosinate-ammonium dehydrogenase E3 (SEQ ID NO: 6) variant PPTGDH-F357G (Pseudomonas moorei; F357G) (protein)
chain: B1 chain with F357G
On to B8, for which, in series [13], the Km was 105 µM and the catalytic efficiency (kcat/Km) is 536000 M⁻¹ s⁻¹. For the same protein, in series [14], the Km stood at 3350 µM, the kcat came to 56.31 ± 1.80 s⁻¹ and the kcat/Km is 16808 M⁻¹ s⁻¹.
